The results in this text go back to patent publication US20140234351A1 (IMMUNOCELLULAR THERAPEUTICS, published 2014).

The chains are these.
B1: Mesothelin 531-539 HLA-A2 peptide (peptide)
peptide: VLPLTVAEV
notes: Synthetic peptide; also called mesothelinp531; mesothelin p531
B2: MAGE-A1 278-286 HLA-A2 peptide (peptide)
peptide: KVLEYVIKV
notes: Synthetic peptide; also called MAGEA1p278; MAGE-A1 p278
B3: IL-13Rα2 345-352 HLA-A2 peptide (peptide)
peptide: WLPFGFILI
notes: Synthetic peptide; also called IL-13Rα2p345; IL-13Rα2 p345
B4: FOLR1 191-199 HLA-A2 peptide (peptide)
peptide: EIWTHSYKV
notes: Synthetic peptide; also called FOLR1p191; FOLR1 p191
B5: EphA2 883-891 HLA-A2 peptide (peptide)
peptide: TLADFDPRV
notes: Synthetic peptide; also called EphA2p883; EphA2 p883

The target of the assay is T1, HLA-A*0201 molecules on TAP-deficient T2 cells (human).
T1 construct: also called HLA-A2; T2 cells expressing HLA-A2
Kind of assay: T2 cell binding assay, fluorescence index (MFI peptide - MFI untreated)/MFI untreated.
As for B1, the MFI index is > 1.5.
In the case of B2, the MFI index is > 1.5.
Take B3: the MFI index was > 1.5.
For the molecule B4, the MFI index was < 1.
Next, B5: > 1.5.
